The experiment has as its target CD40 (UniProt P25942 21-193, limits assumed). The experiment can be described thus: not stated (affinity given in the study drug description; no method).

The Kd is the free concentration of one partner at which half of the binding sites on the other are occupied at equilibrium, for simple one-to-one binding. Read a high Kd as lower affinity.

Chain of CD40 (P25942 21-193 limits assumed): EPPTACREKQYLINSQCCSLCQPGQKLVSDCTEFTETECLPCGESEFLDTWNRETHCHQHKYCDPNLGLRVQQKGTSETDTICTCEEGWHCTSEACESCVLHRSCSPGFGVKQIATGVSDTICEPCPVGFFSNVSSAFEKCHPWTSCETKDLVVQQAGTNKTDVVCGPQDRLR

B1: KPL-404 (antibody, human IgG4 S228P, kappa, V domains shown)
VH: QVQLVQSGAEVKKPGASVKVSCKASGYTFTNYWMHWVRQAPGQRLEWIGYINPSNDYTKYNQKFKDRATLTADKSANTAYMELSSLRSEDTAVYYCARQGFPYWGQGTLVTVSS
VL: EIVLTQSPATLSLSPGERATLSCSASSSVSYMHWYQQKPGQAPRRWIYDTSKLASGVPARFSGSGSGTDYTLTISSLEPEDFAVYYCHQLSSDPFTFGGGTKVEIKR
notes: also called humanized anti-CD40 antibody; KPL-404 drug product
On to B1, for which the affinity, expressed as Kd, was 7.2 nM.

The record behind these values is patent publication US20260103532A1 (published 2026).
